Literature values in PMC2912364.

Target: IL-15Rα (UniProt Q13261)
Chain of UniProt Q13261 (Q13261 31-205): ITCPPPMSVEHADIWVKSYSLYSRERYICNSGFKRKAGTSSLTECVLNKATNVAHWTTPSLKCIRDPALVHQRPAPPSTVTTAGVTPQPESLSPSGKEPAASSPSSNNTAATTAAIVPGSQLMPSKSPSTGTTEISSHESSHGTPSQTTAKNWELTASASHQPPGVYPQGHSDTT

- Kd: 0.038 nM
Substance: IL-15 (from UniProt P40933)
